“And” between values parts separate entries of the source, which are not always exact repeats. Equal entries are not always repeated.
Target: purified EV71 virus-like particles (purified antigen solution of Example 5) (EV71 (enterovirus 71), C4a subtype) (UniProt B9VUU3)
Experiment: indirect ELISA, VLP coated 1 ug/ml, control serum

Negative serum
OD450nm: 0.049 OD and 0.051 OD

— patent publication US20160166675A1
